Here are results for two molecules from article PMC3386216 (Molecular Biology of the Cell, 2012).

The target of test [1] is Sac1 (amino acids 2–521) (untagged recombinant, SPR) (S. cerevisiae) (UniProt P32368). Nature of the test: SPR. (In general: SPR reads the build-up and loss of mass on a sensor chip optically.)
The target of test [2] is T1, GST-Sac1 (amino acids 2–521) (S. cerevisiae, UniProt P32368 2-521).
T1 sequence: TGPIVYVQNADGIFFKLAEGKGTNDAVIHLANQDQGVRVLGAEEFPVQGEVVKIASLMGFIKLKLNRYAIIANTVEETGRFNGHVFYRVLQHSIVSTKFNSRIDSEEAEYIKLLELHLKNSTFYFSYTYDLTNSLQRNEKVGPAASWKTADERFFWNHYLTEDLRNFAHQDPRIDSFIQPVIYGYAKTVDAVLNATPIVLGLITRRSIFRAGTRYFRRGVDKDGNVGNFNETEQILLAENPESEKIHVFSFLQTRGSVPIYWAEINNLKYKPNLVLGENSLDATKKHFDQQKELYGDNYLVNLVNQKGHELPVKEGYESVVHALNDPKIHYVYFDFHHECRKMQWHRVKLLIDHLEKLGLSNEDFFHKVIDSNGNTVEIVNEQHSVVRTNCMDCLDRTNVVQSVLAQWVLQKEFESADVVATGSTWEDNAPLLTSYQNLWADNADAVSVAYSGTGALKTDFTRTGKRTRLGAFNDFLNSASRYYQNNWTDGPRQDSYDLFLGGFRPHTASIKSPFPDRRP
Nature of the test: pull-down.

B1: Vps74ΔN59 (domain or fragment)
chain: DNINIPTLTLMEEVLLMGLRDREGYLSFWNDSISYALRGCIIIELALRGKIRILDDSARKRFDLSERLIEVIDSSKTGEVLLDETLQLMKNDEPLSISNWIDLLSGETWNLLKINYQLKQVRERLAKGLVDKGVLRTEMKNFFLFDMATHPIADASCKEAIKRRVLSVLVSRNMELSYNEYFPETTSFKIIRTLALICGSYGANVLENVLTTLEYEKRDKAISRAEEIMAQFSQYPFDLEKETELGVSVNLNKEVKEEIENNPGHDLQLEVIAGVFEVFSRMDMLL
As for B1, in test [1], the Kd stood at 4.2 µM.

B2: His- and T7-tagged Vps74 (natural protein)
chain: MSTLQRRRVNRADSGDTSSIHSSANNTKGDKIANIAVDGDDDNGTNKKIAYDPEESKLRDNINIPTLTLMEEVLLMGLRDREGYLSFWNDSISYALRGCIIIELALRGKIRILDDSARKRFDLSERLIEVIDSSKTGEVLLDETLQLMKNDEPLSISNWIDLLSGETWNLLKINYQLKQVRERLAKGLVDKGVLRTEMKNFFLFDMATHPIADASCKEAIKRRVLSVLVSRNMELSYNEYFPETTSFKIIRTLALICGSYGANVLENVLTTLEYEKRDKAISRAEEIMAQFSQYPFDLEKETELGVSVNLNKEVKEEIENNPGHDLQLEVIAGVFEVFSRMDMLL
Regarding B2, in test [2], the binding result is “binds”. In addition, the Kd in test [1] came out at 3.8 µM.

By Kd is commonly meant the concentration at which binding is half-saturated.
